Experiment [1] addresses T1, Yeast Rnr2p/Rnr4p heterodimer (yeast (Saccharomyces cerevisiae), UniProt P09938 1-399; P49723 1-345).
T1 construct: Coexpressed and purified as a heterodimer; also called R2/R4 heterodimer
T1 sequence (looked up) 1: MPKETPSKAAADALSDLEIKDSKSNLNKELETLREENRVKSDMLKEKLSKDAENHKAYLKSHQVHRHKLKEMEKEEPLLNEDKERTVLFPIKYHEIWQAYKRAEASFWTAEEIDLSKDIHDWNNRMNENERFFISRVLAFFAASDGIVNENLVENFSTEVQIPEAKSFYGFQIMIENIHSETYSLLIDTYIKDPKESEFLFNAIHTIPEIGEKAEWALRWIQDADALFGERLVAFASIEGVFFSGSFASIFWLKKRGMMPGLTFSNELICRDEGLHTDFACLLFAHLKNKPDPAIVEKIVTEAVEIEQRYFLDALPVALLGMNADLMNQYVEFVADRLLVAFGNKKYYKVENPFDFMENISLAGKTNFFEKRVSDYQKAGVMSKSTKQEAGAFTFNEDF
T1 sequence (looked up) 2: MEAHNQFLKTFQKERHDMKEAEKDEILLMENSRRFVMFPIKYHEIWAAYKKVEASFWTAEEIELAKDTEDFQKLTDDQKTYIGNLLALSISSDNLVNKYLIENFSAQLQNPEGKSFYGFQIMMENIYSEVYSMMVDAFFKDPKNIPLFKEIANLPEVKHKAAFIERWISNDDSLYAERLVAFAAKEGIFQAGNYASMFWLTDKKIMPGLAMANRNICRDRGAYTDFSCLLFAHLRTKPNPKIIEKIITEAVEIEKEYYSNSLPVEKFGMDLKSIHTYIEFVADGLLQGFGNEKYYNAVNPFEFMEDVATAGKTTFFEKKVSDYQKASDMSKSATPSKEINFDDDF
Nature of the experiment: BIAcore, immobilized Sml1p.

The next experiment deals with T2, bovine serum albumin (bovine, UniProt P02769 25-607).
T2 construct: Control; also called BSA
T2 sequence (P02769 25-607 limits assumed): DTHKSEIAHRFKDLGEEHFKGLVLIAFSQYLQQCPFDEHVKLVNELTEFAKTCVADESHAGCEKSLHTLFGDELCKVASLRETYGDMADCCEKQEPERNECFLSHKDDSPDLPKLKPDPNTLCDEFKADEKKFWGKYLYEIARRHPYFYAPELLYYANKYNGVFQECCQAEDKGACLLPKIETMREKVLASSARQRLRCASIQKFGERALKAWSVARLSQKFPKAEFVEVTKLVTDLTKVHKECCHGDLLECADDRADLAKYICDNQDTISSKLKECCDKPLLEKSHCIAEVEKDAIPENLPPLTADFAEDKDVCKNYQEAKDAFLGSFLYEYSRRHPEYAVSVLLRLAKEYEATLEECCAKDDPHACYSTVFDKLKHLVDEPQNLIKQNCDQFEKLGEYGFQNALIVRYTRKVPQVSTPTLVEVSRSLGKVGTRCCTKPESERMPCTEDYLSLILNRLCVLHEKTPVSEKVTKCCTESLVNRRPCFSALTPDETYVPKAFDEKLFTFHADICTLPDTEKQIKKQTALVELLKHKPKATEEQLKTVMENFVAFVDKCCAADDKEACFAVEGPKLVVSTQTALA
The experiment in a line: BIAcore, immobilized Sml1p. On the technique in general: SPR reads the build-up and loss of mass on a sensor chip optically.

Experiment [2] deals with T3, Recombinant yeast Rnr1 protein (large subunit of ribonucleotide reductase) (yeast (Saccharomyces cerevisiae), UniProt P21524 1-888).
T3 construct: It is in monomer/dimer/tetramer equilibrium depending on dTTP; also called yeast R1 protein
T3 sequence (looked up): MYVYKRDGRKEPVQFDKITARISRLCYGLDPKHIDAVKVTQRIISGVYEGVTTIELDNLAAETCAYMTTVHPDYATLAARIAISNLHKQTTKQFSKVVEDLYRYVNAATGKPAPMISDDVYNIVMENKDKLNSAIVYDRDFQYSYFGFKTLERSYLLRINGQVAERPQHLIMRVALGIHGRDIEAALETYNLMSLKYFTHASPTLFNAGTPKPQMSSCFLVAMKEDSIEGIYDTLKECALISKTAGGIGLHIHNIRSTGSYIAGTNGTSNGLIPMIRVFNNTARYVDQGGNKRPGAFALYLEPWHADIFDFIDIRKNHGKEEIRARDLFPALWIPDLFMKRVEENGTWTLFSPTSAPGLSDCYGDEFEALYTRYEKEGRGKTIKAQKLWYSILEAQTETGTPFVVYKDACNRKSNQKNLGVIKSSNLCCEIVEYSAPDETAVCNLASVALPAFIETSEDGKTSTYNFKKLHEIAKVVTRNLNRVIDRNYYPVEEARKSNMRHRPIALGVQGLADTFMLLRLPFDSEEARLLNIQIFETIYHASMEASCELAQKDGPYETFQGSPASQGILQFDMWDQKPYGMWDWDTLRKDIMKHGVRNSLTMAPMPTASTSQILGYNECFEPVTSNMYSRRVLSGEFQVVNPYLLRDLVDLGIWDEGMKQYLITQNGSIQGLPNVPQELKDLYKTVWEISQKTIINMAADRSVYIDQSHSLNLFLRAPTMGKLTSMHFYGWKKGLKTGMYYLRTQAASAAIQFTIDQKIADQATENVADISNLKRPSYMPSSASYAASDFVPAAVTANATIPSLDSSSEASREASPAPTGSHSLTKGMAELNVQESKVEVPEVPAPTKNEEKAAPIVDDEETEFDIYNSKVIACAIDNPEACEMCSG
The experiment in a line: BIAcore SPR, calculated from rate constants; calculated from the rate constants, not the equilibrium fit. As to the method: (§1) BIAcore biosensor analysis. The interaction between Sml1p and either yeast Rnr1p or mouse R1 protein was studied by biosensor analysis using the BIAcore method (Biacore AB). The Sml1 protein was prepared in 10 mM sodium acetate, pH 5.2, at a concentration of 0.44 mg/ml; it was then immobilized on the dextran layer of the sensor chip as described previously for the mouse R2 protein (17). The ligand proteins were equilibrated with running buffer (10 mM Hepes-KOH, pH 7.4, 200 mM potassium acetate, 1 mM EDTA, 5 mM magnesium acetate and 0.05% Surfactant P20 (BIAcore). The interactions were studied at a constant temperature of 22° C. and a constant flow of 5 μl/min. Kinetics for the interaction of Sml1p with yeast Rnr1p was determined by allowing the immobilized Sml1p to interact with increasing concentrations of Rnr1p (18). The resonance unit (RU) is proportional to the mass, and 1 RU corresponds to a surface concentration of 1 pg of protein/mm² of the 100 nm thick dextran layer (19).
(§2) In control experiments, where the same series of Rnr1p solutions passed a sensor chip without immobilized Sml1p, a "bulk effect" gave a response of only about 60 RU. […] Calculating the equilibrium dissociation constant from these rate constants gave a K_0 of about 0.25 µM, which is close to the directly determined K_0.

Experiment [3] deals with T3, Recombinant yeast Rnr1 protein (large …). The experiment in a line: BIAcore SPR, BIAevaluation software, lower curves of FIG. 12A; kinetic fit (BIAevaluation), lower curves of FIG. 12A. Here is the method:
In this figure, the bulk effect response of around 60 RU has been subtracted.
as §1, §2

For orientation: Kd means a measure of binding affinity in units of concentration. The koff is the rate constant with which the complex falls apart. One may read the kon as the second-order rate constant of association.

B1: Recombinant yeast Sml1 protein (other)
chain: MQNSQDYFYAQNRCQQQQAPSTLRTVTMAEFRRVPLPPMAEVPMLSTQNSMGSSASASASSLEMWEKDLEERLNSIDHDMNNNKFGSGELKSMFNQGKVEEMDF
notes: Immobilized on the BIAcore chip in the biosensor experiments; also called YML058W product
Consider B1, for which the binding result in experiment [1] is recorded as “no binding (tested: 0.1 mg/ml)”. The binding result with bovine serum albumin is listed as “no binding (tested: 0.1 mg/ml)”. Moreover, the Kd in experiment [2] is around 250 nM. Further, in experiment [3], the koff turned out to be 0.04 s⁻¹ and the kon is around 153000 M⁻¹ s⁻¹.

(Values after patent publication US7125658B2, “Small protein that interacts with a ribonucleotide reductase subunit and uses thereof” (The Trustees of Columbia University in the City of New York, priority 1998, dated 2006).)
